From patent publication US20240342310A1 (UNIVERSITY OF VIRGINIA PATENT FOUNDATION, published 2024)

Target: T1, fibronectin leucine rich transmembrane protein 3 (FLRT3) (UniProt Q9NZU0 29-649, limits assumed)
T1 sequence (looked up): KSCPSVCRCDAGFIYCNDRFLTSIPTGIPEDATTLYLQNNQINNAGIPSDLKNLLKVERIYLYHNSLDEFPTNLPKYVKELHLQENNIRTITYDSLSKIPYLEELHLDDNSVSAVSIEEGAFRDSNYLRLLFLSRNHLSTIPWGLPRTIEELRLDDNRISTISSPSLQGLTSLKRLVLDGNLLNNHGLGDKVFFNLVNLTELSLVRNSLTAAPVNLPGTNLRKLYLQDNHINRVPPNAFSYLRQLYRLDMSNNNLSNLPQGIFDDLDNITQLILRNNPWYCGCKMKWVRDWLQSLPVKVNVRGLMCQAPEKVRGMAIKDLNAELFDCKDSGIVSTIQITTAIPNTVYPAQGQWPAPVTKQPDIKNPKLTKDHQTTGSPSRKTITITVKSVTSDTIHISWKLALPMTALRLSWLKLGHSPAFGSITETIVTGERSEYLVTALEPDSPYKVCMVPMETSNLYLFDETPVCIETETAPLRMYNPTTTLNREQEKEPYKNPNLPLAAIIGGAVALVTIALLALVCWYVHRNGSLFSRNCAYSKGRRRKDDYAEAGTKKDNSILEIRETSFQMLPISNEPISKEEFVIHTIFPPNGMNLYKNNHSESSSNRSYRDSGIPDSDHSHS
Test: co-immunoprecipitation (data not shown)

B1: circCCDC7-180aa (other)
chain: MQVGNSQTKVKGEDSKNIPLEKETRKSLVSDSGGQRTSDKIQEYPQITAQSGRLIEKSSEKKRSSPAISDLSQILKSQDESAFLESSNEVSVAENQSYKSPSETHDKSLTTVSSSKEVQDSLSVGTLAQKNETVISPFILPPVLTESKKADVSEEQLQKMTEEQTYQAAEKSQESSTSGN
notes: All other experiments on the protein used the C-terminally 3xFLAG-tagged form expressed from plenti-ciR-GFP-T2A; also called 180aa protein encoded by circCCDC7(15, 16, 17, 18, 19); CCDC719-15 encoded protein; not shown: 3xFLAG tag inserted just before the stop codon in the expression construct
- binding result: no binding
